Laboratory results taken from the supplement of paper PMC12042874.
± gives the uncertainty stated by the source.

Assay: amyloid nucleation score (Sup35N fusion, yeast selection) (log enrichment); library NNK2; higher = more nucleation; inactive = no reads after selection
Outline: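 Yeast lacking psi expressed peptides of 20 random codons fused to Sup35N, received 100 μM copper sulfate for 24 hours, and were then grown for 7 days at 30°C on medium lacking adenine and uracil. Illumina sequencing of input and output plasmid inserts provided the reads. Nucleation scores are DiMSum log enrichments of output over input, centred on the mode of non-aggregating sequences. Any sequence with under 100 input reads was excluded.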

For FWLVL, which amyloid nucleation score is on record?
The amyloid nucleation score was -1.47 ± 0.73.

With FWRDLPAQWTRPKAENLVLK as the substance, how does the amyloid nucleation score read?
Its amyloid nucleation score is 1.23 ± 0.32.

Which amyloid nucleation score does the source give for FWRTP here?
Its amyloid nucleation score is -0.539 ± 0.5.

Which amyloid nucleation score does the source give for FWYENP here?
The amyloid nucleation score was 2.14 ± 0.16.

Which amyloid nucleation score does the source give for FWYFPDIIWG here?
Its amyloid nucleation score is “inactive”.

For FYASLHNSFFSVLWTDMTFS, which amyloid nucleation score is on record?
Its amyloid nucleation score is -0.487 ± 1.1.

For FYCVNV, which amyloid nucleation score is on record?
Its amyloid nucleation score is -0.383 ± 0.64.

For FYFCF, which amyloid nucleation score is on record?
Its amyloid nucleation score is 7.59 ± 0.03.

For FYFEMVTSD, which amyloid nucleation score is on record?
The amyloid nucleation score was “inactive”.

Which amyloid nucleation score does the source give for FYFHEACPSRLHHTKSAIGK here?
The amyloid nucleation score was -0.839 ± 0.78.

Which amyloid nucleation score does the source give for FYGGDA here?
Its amyloid nucleation score is 0.005 ± 0.39.

With FYHISEVLVVPLRLELSVQL as the substance, how does the amyloid nucleation score read?
Its amyloid nucleation score is 5.68 ± 0.07.

With FYIYGNSCSPYIML as the substance, how does the amyloid nucleation score read?
Its amyloid nucleation score is -0.681 ± 1.

For FYLNKDNLWNSNLGGSAHKC, which amyloid nucleation score is on record?
The amyloid nucleation score was -2.38 ± 1.1.

For FYLRNSVMCTGPDLGNSTYM, which amyloid nucleation score is on record?
The amyloid nucleation score was -1.15 ± 1.1.

For FYLSLLYGRSRQIGLLIYFQ, which amyloid nucleation score is on record?
Its amyloid nucleation score is 0.974 ± 0.15.

With FYLYFIYGSVCSLSRFNPIR as the substance, how does the amyloid nucleation score read?
The amyloid nucleation score was 1.53 ± 0.1.

Which amyloid nucleation score does the source give for FYLYNFMCEVLYMESRRVMS here?
Its amyloid nucleation score is “inactive”.

Which amyloid nucleation score does the source give for FYMTYWISPMVIQWVFTDYA here?
Its amyloid nucleation score is 5.571 ± 0.034.

For FYMYAFNYYSFY, which amyloid nucleation score is on record?
The amyloid nucleation score was 2.91 ± 0.086.

With FYSAVYMLFIVMWFGYSLIN as the substance, how does the amyloid nucleation score read?
The amyloid nucleation score was “inactive”.

For FYSELKLNGMH, which amyloid nucleation score is on record?
The amyloid nucleation score was -2.04 ± 0.62.

With FYWVLMNYGQLCCWFW as the substance, how does the amyloid nucleation score read?
The amyloid nucleation score was 1.79 ± 0.2.

For GAFSYEMTRLKALGFWPL, which amyloid nucleation score is on record?
Its amyloid nucleation score is 5.87 ± 0.045.

For GAIIGIAGVPKGLSNSHSDG, which amyloid nucleation score is on record?
Its amyloid nucleation score is -0.606 ± 1.1.

Which amyloid nucleation score does the source give for GAPSHFCEFCSYSAAKEEYE here?
Its amyloid nucleation score is “inactive”.

For GARYTIWECF, which amyloid nucleation score is on record?
The amyloid nucleation score was “inactive”.

For GCCWEKSASRSAETYWSGRA, which amyloid nucleation score is on record?
The amyloid nucleation score was 3.06 ± 0.14.

With GCGGAHY as the substance, how does the amyloid nucleation score read?
The amyloid nucleation score was -0.633 ± 0.29.

With GCHICHRWIKSVYRSNHALM as the substance, how does the amyloid nucleation score read?
Its amyloid nucleation score is 0.291 ± 0.33.

With GCKNR as the substance, how does the amyloid nucleation score read?
Its amyloid nucleation score is 0.226 ± 0.51.

For GCLLLPKGASHKIDYCGSDV, which amyloid nucleation score is on record?
Its amyloid nucleation score is 0.396 ± 0.35.

Which amyloid nucleation score does the source give for GCLTNTSSGMHWS here?
The amyloid nucleation score was -0.208 ± 0.24.

Which amyloid nucleation score does the source give for GCRAVRTWEPIGVAGEYFGS here?
Its amyloid nucleation score is 6.232 ± 0.037.

For GCRDMIWVGL, which amyloid nucleation score is on record?
Its amyloid nucleation score is “inactive”.

For GCRRISFKSHISGVEGTNGG, which amyloid nucleation score is on record?
The amyloid nucleation score was 1.2 ± 0.43.

With GCTSTRRLVYC as the substance, how does the amyloid nucleation score read?
The amyloid nucleation score was -0.622 ± 0.29.

For GCVLAQLSSVGSGVLML, which amyloid nucleation score is on record?
The amyloid nucleation score was 3.14 ± 0.16.

For GCWKD, which amyloid nucleation score is on record?
The amyloid nucleation score was 1.22 ± 0.36.

With GDGHLVILLSHFTPWSLNTG as the substance, how does the amyloid nucleation score read?
Its amyloid nucleation score is -0.209 ± 0.48.

Which amyloid nucleation score does the source give for GDKCGFCKNAGPGVKVS here?
The amyloid nucleation score was -0.807 ± 0.79.

Which amyloid nucleation score does the source give for GDKYCGLEPYGMGHNHMYAL here?
Its amyloid nucleation score is 0.546 ± 0.56.

For GDMLILSENDQRYCGPVDL, which amyloid nucleation score is on record?
The amyloid nucleation score was 0.107 ± 0.45.

Which amyloid nucleation score does the source give for GDNYIS here?
Its amyloid nucleation score is 0.782 ± 0.41.

With GDPLS as the substance, how does the amyloid nucleation score read?
The amyloid nucleation score was 0.162 ± 0.28.

For GDTPGSLYCNLISEGAI, which amyloid nucleation score is on record?
The amyloid nucleation score was 0.119 ± 0.76.

Which amyloid nucleation score does the source give for GDVQLRGMHESPYSPPSQGR here?
The amyloid nucleation score was -0.127 ± 0.49.

With GEAFRKDPLRCYMFQGIIEQ as the substance, how does the amyloid nucleation score read?
The amyloid nucleation score was 2.1 ± 0.14.

Which amyloid nucleation score does the source give for GEDCWRPPVR here?
Its amyloid nucleation score is 0.559 ± 0.5.

Which amyloid nucleation score does the source give for GEHSGTHNFKCFVSIIRLSR here?
The amyloid nucleation score was 0.305 ± 1.

With GEISIGMNLTGEKTSSSGFK as the substance, how does the amyloid nucleation score read?
Its amyloid nucleation score is -0.679 ± 1.1.

Which amyloid nucleation score does the source give for GENKDYWGHGYVSLACNRQG here?
The amyloid nucleation score was 0.492 ± 0.38.

Which amyloid nucleation score does the source give for GETVHREYLAGWMALSSRRR here?
Its amyloid nucleation score is 2.47 ± 0.094.

Which amyloid nucleation score does the source give for GEYGCHHVCLVQGLFGI here?
The amyloid nucleation score was -0.164 ± 0.42.

For GFALYFCSEFMVSVCRCKHT, which amyloid nucleation score is on record?
The amyloid nucleation score was 9.613 ± 0.065.

Which amyloid nucleation score does the source give for GFCQASSWM here?
Its amyloid nucleation score is -0.109 ± 0.76.

Which amyloid nucleation score does the source give for GFDGLRVLLNEHNVIAK here?
Its amyloid nucleation score is 0.771 ± 0.47.

Which amyloid nucleation score does the source give for GFLELCMFKVFFQRCARTIS here?
Its amyloid nucleation score is -1.04 ± 1.1.

With GFPVWNVYLKSNGHVCDGLG as the substance, how does the amyloid nucleation score read?
Its amyloid nucleation score is 1.31 ± 0.15.

With GFRNCWKWPHWVLAPMLYNS as the substance, how does the amyloid nucleation score read?
Its amyloid nucleation score is 0.007 ± 1.1.

With GFRVVCHILALCRYGTCLEI as the substance, how does the amyloid nucleation score read?
Its amyloid nucleation score is -0.608 ± 0.35.

For GFSTRYVFTSLYLKYFNRVY, which amyloid nucleation score is on record?
Its amyloid nucleation score is -0.476 ± 0.64.

Which amyloid nucleation score does the source give for GFSWDNESFLCELKMGCLTG here?
Its amyloid nucleation score is -0.646 ± 0.31.

Which amyloid nucleation score does the source give for GFVLILTAIYVVGCINICAM here?
The amyloid nucleation score was 5.66 ± 0.064.

Which amyloid nucleation score does the source give for GFVMSYGRGLLS here?
Its amyloid nucleation score is 0.29 ± 0.42.
